Data published in IntAct's records for PubMed 9082982.

Target: sap18_drome Bin1 (UniProt Q9VEX9)
Sequence (Q9VEX9 whole entry): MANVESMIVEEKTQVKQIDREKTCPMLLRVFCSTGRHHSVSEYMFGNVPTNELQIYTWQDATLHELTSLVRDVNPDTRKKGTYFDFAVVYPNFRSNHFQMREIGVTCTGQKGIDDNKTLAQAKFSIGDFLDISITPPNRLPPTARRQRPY

Cell division control protein 42 homolog (Homo sapiens), P60953 D118A, sequence (P60953 whole entry D118A): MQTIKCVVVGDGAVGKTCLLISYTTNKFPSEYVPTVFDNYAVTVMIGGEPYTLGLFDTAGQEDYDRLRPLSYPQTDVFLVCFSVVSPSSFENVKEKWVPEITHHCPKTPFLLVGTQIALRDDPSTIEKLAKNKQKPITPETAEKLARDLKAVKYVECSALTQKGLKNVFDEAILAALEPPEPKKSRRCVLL
Cell division control protein 42 homolog (Homo sapiens), P60953 G12V, sequence (P60953 whole entry G12V): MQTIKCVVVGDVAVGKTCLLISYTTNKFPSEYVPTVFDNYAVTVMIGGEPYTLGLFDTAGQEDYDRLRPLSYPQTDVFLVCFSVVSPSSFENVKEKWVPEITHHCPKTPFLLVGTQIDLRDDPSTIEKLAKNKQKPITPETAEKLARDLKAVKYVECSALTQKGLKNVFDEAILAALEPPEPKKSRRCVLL

| Substance | effect of a mutation on the interaction |
| --- | --- |
| Cell division control protein 42 homolog (Homo sapiens), P60953 D118A | disrupting interaction |
| Cell division control protein 42 homolog (Homo sapiens), P60953 G12V | increasing interaction |
